Experimental data as given in the supplement of paper PMC7877785.
± gives the uncertainty stated by the source.

Assay: self-splicing fitness, log relative to wild type (ln ratio); higher = more splicing; Tetrahymena group I intron in knt gene, E. coli kanamycin selection, DiMSum; sequences stand for … in CUCUCU…GGAGGGAAAAGUUAUCAGGCAUGCACCUGGUAGCUAGUCUUUAAACCAAUAGAUUGCAUCGGUUUAAAAGGCAAGACCGUCAAAUUGCGGGAAAGGGGUCAACAGCCGUUCAGUACCAAGUCUCAGGGGAAACUUUGAGAUGGCCUUGCAAAGGGUAUGGUAAUAAGCUGACGGACAUGGUCCUAACCACGCAGCCAAGUCCUAAGUCAACAGAUCUUCUGUUGAUAUGGAUGCAGUUCACAGACUAAAUGUCGGUCGGGGAAGAUGUAUUCUUCUCAUAAGAUAUAGUCGGACCUCUCCUUAAUGGGAGCUAGCGGAUGAAGUGAUGCAACACUGGAGCCGCUGGGAACUAAUUUGUAUGCGAAAGUAUAUUGAUUAGUUUUGGAGUACUCGUGGUCG
Outline: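 Pooled colonies went to amplicon sequencing on an Illumina HiSeq 2500 after six replicate transformations. The plates were LB agar with 100 μg/mL carbenicillin, 50 μM IPTG and 0.2% rhamnose, with or without 25 μg/mL kanamycin, incubated overnight at 37°C or 30°C. The E. coli BL21(DE3) library had all eight P1ex-region intron nucleotides randomised, the intron placed in the knt kanamycin-resistance gene on pET-22b(+). DiMSum fitness is the error-weighted combination of replicate fold changes, kanamycin against none, normalised to wild type.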

| Sequence | self-splicing fitness (ln) (37 °C) | self-splicing fitness (ln) (30 °C) |
| --- | --- | --- |
| CUGUAGCAAUAUUACGAAUU | -2.7 ± 0.3 | – |
| AGUCAGCAAUAUUACGACGA | -0.283 ± 0.11 | -0.25 ± 0.07 |
| AGGAAGCAAUAUUACGUUAA | -1.72 ± 0.12 | -3.22 ± 0.18 |
| GGUAAGCAAUAUUACGGUCC | – | -1.57 ± 0.34 |
| UGCGAGCAAUAUUACGUAGG | -2.76 ± 0.21 | -3.81 ± 0.18 |
| CCGGAGCAAUAUUACGCAGU | -2.13 ± 0.25 | -3.74 ± 0.28 |
| AGCCAGCAAUAUUACGAAGU | -1.75 ± 0.12 | -4.11 ± 0.22 |
| GCUGAGCAAUAUUACGCGGU | -2.02 ± 0.3 | -3.6 ± 0.21 |
| GCCAAGCAAUAUUACGUCGG | -2.28 ± 0.24 | -2.95 ± 0.18 |
| CAGGAGCAAUAUUACGGGGA | -3.47 ± 0.37 | -5.01 ± 0.38 |
| CUGCAGCAAUAUUACGGCCU | -1.56 ± 0.15 | -3.23 ± 0.17 |
| CCCAAGCAAUAUUACGCUUC | -3.15 ± 0.43 | -2.84 ± 0.18 |
| UCCCAGCAAUAUUACGUAGU | -0.458 ± 0.066 | -0.707 ± 0.046 |
| CUGAAGCAAUAUUACGGUAC | -2.71 ± 0.26 | -2.82 ± 0.18 |
| ACAGAGCAAUAUUACGGUAG | -2.49 ± 0.18 | -2.61 ± 0.13 |
| ACACAGCAAUAUUACGAGGU | -2.04 ± 0.14 | -2.85 ± 0.13 |
| GAUCAGCAAUAUUACGGCCU | -1.18 ± 0.23 | -1.13 ± 0.22 |
| CUCUAGCAAUAUUACGGGAC | -3.65 ± 0.46 | -2.77 ± 0.19 |
| ACCUAGCAAUAUUACGUGAG | -0.0328 ± 0.061 | -0.357 ± 0.048 |
| GGCCAGCAAUAUUACGCAUA | -0.945 ± 0.12 | -1.52 ± 0.095 |
| UACGAGCAAUAUUACGCAUC | -1.96 ± 0.21 | – |
| UCCUAGCAAUAUUACGGCAG | -2.81 ± 0.22 | -3.38 ± 0.24 |
| ACGGAGCAAUAUUACGCACU | -1.32 ± 0.23 | -3.4 ± 0.34 |
| GCCGAGCAAUAUUACGAUUU | -0.375 ± 0.14 | -2.04 ± 0.14 |
| UUCCAGCAAUAUUACGGUGC | -1.23 ± 0.18 | -1.9 ± 0.16 |

| Sequence | self-splicing fitness (ln) (37 °C) | self-splicing fitness (ln) (30 °C) |
| --- | --- | --- |
| UUGCAGCAAUAUUACGCCUC | -0.787 ± 0.37 | -2.47 ± 0.45 |
| AUUUAGCAAUAUUACGAUUU | 0.23 ± 0.13 | -0.123 ± 0.12 |
| UUCAAGCAAUAUUACGGCAA | 0.0563 ± 0.11 | 0.101 ± 0.1 |
| ACGGAGCAAUAUUACGAUCA | -1.53 ± 0.24 | -2.77 ± 0.37 |
| UGAAAGCAAUAUUACGCGAU | -2.37 ± 0.19 | -2.15 ± 0.14 |
| GUAAAGCAAUAUUACGCGAU | -1.42 ± 0.19 | -3.23 ± 0.21 |
| UGCGAGCAAUAUUACGAGUC | -2.27 ± 0.2 | -3.05 ± 0.21 |
| UUACAGCAAUAUUACGUUAA | -0.847 ± 0.085 | -1.12 ± 0.11 |
| AAUCAGCAAUAUUACGUCUC | -0.314 ± 0.093 | -0.509 ± 0.091 |
| AGGUAGCAAUAUUACGAGAG | -2.71 ± 0.039 | -3.887 ± 0.03 |
| GAGUAGCAAUAUUACGCUAU | – | -3.73 ± 0.27 |
| ACUUAGCAAUAUUACGGACA | -0.798 ± 0.14 | -1.46 ± 0.14 |
| AGUAAGCAAUAUUACGUGAU | -2.33 ± 0.2 | -3.15 ± 0.2 |
| AUGGAGCAAUAUUACGUGUC | -2.71 ± 0.28 | -4.57 ± 0.46 |
| UAAGAGCAAUAUUACGGGAC | -1.86 ± 0.33 | -2.98 ± 0.38 |
| CAUAAGCAAUAUUACGCCCU | -2.4 ± 0.49 | -2.76 ± 0.43 |
| CGAGAGCAAUAUUACGGACA | -3.4 ± 0.39 | -1.85 ± 0.28 |
| AUCGAGCAAUAUUACGAACA | -1.27 ± 0.2 | -2.91 ± 0.24 |
| UACAAGCAAUAUUACGUCUC | -2.24 ± 0.17 | -1.68 ± 0.1 |
| UCAGAGCAAUAUUACGACGA | -0.26 ± 0.11 | -0.0796 ± 0.1 |
| GGGGAGCAAUAUUACGUGUG | -1.7 ± 0.21 | -3.08 ± 0.27 |
| GCAUAGCAAUAUUACGAUGA | 0.0691 ± 0.07 | -0.554 ± 0.079 |
| ACUCAGCAAUAUUACGGAUA | -0.834 ± 0.16 | -0.808 ± 0.15 |
| AAGCAGCAAUAUUACGUUAU | -1.21 ± 0.1 | -2.38 ± 0.089 |
